From patent US20210332152A1

Key:
human IgG (human) = test: SPR (BIAcore T200), peptide immobilised on sensor chip, human IgG injected
[1] = biological target: human serum-derived γ-globulin (Sigma-Aldrich) (human); test: column chromatography; 0.5 mg synthetic peptide immobilised on NHS-activated column, 1 mg/mL γ-globulin fed, 10% breakthrough

Binder: GPDCAYHRGELVWCTFH [peptide (amino acid sequence: SEQ ID NO: 18) prepared by chemical synthesis]
- Kd (human IgG (human)): 14 nM
- koff (human IgG (human)): 0.0048 s⁻¹
- kon (human IgG (human)): 330000 M⁻¹ s⁻¹
- dynamic binding capacity (DBC) [1]: 6.9 mg/mL-column
